This data set deals with MMP3 resistant rAgrin (SEQ ID NO: 19).

In the case of MMP3, the MMP3 degradation entry was “is resistant to MMP3 degradation” and the “degradation of Agrin in the presence of increasing amounts of MMP3 for 24 hours” value is reported as “mutation of the MMP-3 cleavage site reduces degradation of Agrin (polypeptide defined by SEQ ID NO: 19)”.
